Laboratory results taken from publication PMC3101628 (Nature structural & molecular biology, 2011).
Residue numbers refer to the chain shown, from its start. Names may count otherwise. “And” between values parts separate entries of the source, which are not always exact repeats. Identical values can stand only once. Like-named read-outs stand apart in the source and are kept apart here.

Legend:
[1] = biological target: the molecule itself; test: SEC
[2] = biological target: the molecule itself; test: SEC; remark: listed apart in the source
[3] = biological target: the molecule itself; test: SEC; remark: listed apart in the source
[4] = biological target: the molecule itself; test: SEC; remark: listed apart in the source
[5] = biological target: the molecule itself; test: SEC-MALS
[6] = biological target: the molecule itself; test: SEC; remark: listed apart in the source
[7] = biological target: the molecule itself
[8] = biological target: the molecule itself; test: SEC; remark: listed apart in the source
[9] = biological target: the molecule itself; test: SEC; remark: listed apart in the source

B1: human ribonucleotide reductase RR1 (hRRM1), wild type (enzyme, UniProt P23921 1-792, looked up)
chain: MHVIKRDGRQERVMFDKITSRIQKLCYGLNMDFVDPAQITMKVIQGLYSGVTTVELDTLAAETAATLTTKHPDYAILAARIAVSNLHKETKKVFSDVMEDLYNYINPHNGKHSPMVAKSTLDIVLANKDRLNSAIIYDRDFSYNYFGFKTLERSYLLKINGKVAERPQHMLMRVSVGIHKEDIDAAIETYNLLSERWFTHASPTLFNAGTNRPQLSSCFLLSMKDDSIEGIYDTLKQCALISKSAGGIGVAVSCIRATGSYIAGTNGNSNGLVPMLRVYNNTARYVDQGGNKRPGAFAIYLEPWHLDIFEFLDLKKNTGKEEQRARDLFFALWIPDLFMKRVETNQDWSLMCPNECPGLDEVWGEEFEKLYASYEKQGRVRKVVKAQQLWYAIIESQTETGTPYMLYKDSCNRKSNQQNLGTIKCSNLCTEIVEYTSKDEVAVCNLASLALNMYVTSEHTYDFKKLAEVTKVVVRNLNKIIDINYYPVPEACLSNKRHRPIGIGVQGLADAFILMRYPFESAEAQLLNKQIFETIYYGALEASCDLAKEQGPYETYEGSPVSKGILQYDMWNVTPTDLWDWKVLKEKIAKYGIRNSLLIAPMPTASTAQILGNNESIEPYTSNIYTRRVLSGEFQIVNPHLLKDLTERGLWHEEMKNQIIACNGSIQSIPEIPDDLKQLYKTVWEISQKTVLKMAAERGAFIDQSQSLNIHIAEPNYGKLTSMHFYGWKQGLKTGMYYLRTRPAANPIQFTLNKEKLKDKEKVSKEEEEKERNTAAMVCSLENRDECLMCGS
In the case of B1, the “stoichiometry N” value [1] is reported as 6 and the “stoichiometry N” value [2] is reported as 2.

B2: hRRM1 H2E (enzyme, human, UniProt P23921 1-792, looked up)
chain: B1 chain with H2E
In the case of B2, the “stoichiometry N” value [1] is reported as 2 and 6.

B3: hRRM1 D57N (enzyme, human, UniProt P23921 1-792, looked up)
chain: B1 chain with D57N
In the case of B3, the “stoichiometry N” value [3] is reported as 2 and the “stoichiometry N” value [4] is reported as 6.

B4: hRRM1 D16R (enzyme, human, UniProt P23921 1-792, looked up)
chain: B1 chain with D16R
With B4 the “stoichiometry N” value [5] was 2 and the “stoichiometry N” value [6] was 6.

B5: ScRR1 D182R (enzyme, S. cerevisiae)
chain: MYVYKRDGRKEPVQFDKITARISRLCYGLDPKHIDAVKVTQRIISGVYEGVTTIELDNLAAETCAYMTTVHPDYATLAARIAISNLHKQTTKQFSKVVEDLYRYVNAATGKPAPMISDDVYNIVMENKDKLNSAIVYDRDFQYSYFGFKTLERSYLLRINGQVAERPQHLIMRVALGIHGRRIEAALETYNLMSLKYFTHASPTLFNAGTPKPQMSSCFLVAMKEDSIEGIYDTLKECALISKTAGGIGLHIHNIRSTGSYIAGTNGTSNGLIPMIRVFNNTARYVDQGGNKRPGAFALYLEPWHADIFDFIDIRKNHGKEEIRARDLFPALWIPDLFMKRVEENGTWTLFSPTSAPGLSDCYGDEFEALYTRYEKEGRGKTIKAQKLWYSILEAQTETGTPFVVYKDACNRKSNQKNLGVIKSSNLCCEIVEYSAPDETAVCNLASVALPAFIETSEDGKTSTYNFKKLHEIAKVVTRNLNRVIDRNYYPVEEARKSNMRHRPIALGVQGLADTFMLLRLPFDSEEARLLNIQIFETIYHASMEASCELAQKDGPYETFQGSPASQGILQFDMWDQKPYGMWDWDTLRKDIMKHGVRNSLTMAPMPTASTSQILGYNECFEPVTSNMYSRRVLSGEFQVVNPYLLRDLVDLGIWDEGMKQYLITQNGSIQGLPNVPQELKDLYKTVWEISQKTIINMAADRSVYIDQSHSLNLFLRAPTMGKLTSMHFYGWKKGLKTGMYYLRTQAASAAIQFTIDQKIADQATENVADISNLKRPSYMPSSASYAASDFVPAAVTANATIPSLDSSSEASREASPAPTGSHSLTKGMAELNVQESKVEVPEVPAPTKNEEKAAPIVDDEETEFDIYNSKVIACAIDNPEACEMCSG
In the case of B5, the “stoichiometry N” value [7] is reported as 6.

B6: S. cerevisiae ribonucleotide reductase RR1 (ScRR1), wild type (enzyme)
chain: B5 chain with R182D
For B6, the “stoichiometry N” value [8] was 6.

B7: hRRM1 with the first 74 residues deleted (t-hRRM1) (domain or fragment, human, UniProt P23921 75-792, looked up)
chain: AILAARIAVSNLHKETKKVFSDVMEDLYNYINPHNGKHSPMVAKSTLDIVLANKDRLNSAIIYDRDFSYNYFGFKTLERSYLLKINGKVAERPQHMLMRVSVGIHKEDIDAAIETYNLLSERWFTHASPTLFNAGTNRPQLSSCFLLSMKDDSIEGIYDTLKQCALISKSAGGIGVAVSCIRATGSYIAGTNGNSNGLVPMLRVYNNTARYVDQGGNKRPGAFAIYLEPWHLDIFEFLDLKKNTGKEEQRARDLFFALWIPDLFMKRVETNQDWSLMCPNECPGLDEVWGEEFEKLYASYEKQGRVRKVVKAQQLWYAIIESQTETGTPYMLYKDSCNRKSNQQNLGTIKCSNLCTEIVEYTSKDEVAVCNLASLALNMYVTSEHTYDFKKLAEVTKVVVRNLNKIIDINYYPVPEACLSNKRHRPIGIGVQGLADAFILMRYPFESAEAQLLNKQIFETIYYGALEASCDLAKEQGPYETYEGSPVSKGILQYDMWNVTPTDLWDWKVLKEKIAKYGIRNSLLIAPMPTASTAQILGNNESIEPYTSNIYTRRVLSGEFQIVNPHLLKDLTERGLWHEEMKNQIIACNGSIQSIPEIPDDLKQLYKTVWEISQKTVLKMAAERGAFIDQSQSLNIHIAEPNYGKLTSMHFYGWKQGLKTGMYYLRTRPAANPIQFTLNKEKLKDKEKVSKEEEEKERNTAAMVCSLENRDECLMCGS
For B7, the “stoichiometry N” value [9] was 2.
